Reference: US10260060B2, “Genetically modified phenylpyruvate decarboxylase, processes to prepare, and uses thereof” (Dow Global Technologies LLC, priority 2014, dated 2019)

Legend:
Format in all cases: biochemical, Azospirillum brasilense
[1] = substrate: CCCCCCC(=O)C(=O)O; assay: HTP AbPPDC coupled enzyme assay (ADH6/NADPH), 2-ketoacid decarboxylation kinetics, F532V; details: other: pH 6.8, 30° C, 2-ketoacid 0 to 4 mM, Hill equation, mean ± standard error
Experimental: (§1) The evaluation of the AbPPDC variants is performed in two steps using the high-throughput enzyme assay described hereinbelow. Initially, all the variants are tested for activity against a single high concentration (2 mM) of 2-KH and 2-KN (as shown in Table 1). Following the initial evaluation, detailed kinetic analysis is performed on a select number of variants to determine the maximal rate (kcat), substrate concentration yielding half maximal rate (K0.5, equivalent of KM for enzymes following Michaelis-Menten kinetics), and the catalytic efficiency of the enzyme (kcat/K0.5) against 2-KO and 2-KN (as shown in Table 2). AbPPDC variants, having higher specificity (higher kcat/K0.5) for 2-KN, will be efficient in producing octanal and chemicals derived from it inside the cells.
(§2) To evaluate the substrate specificity of the wild type AbPPDC and its variants listed in Table 1, genes of all the proteins are expressed in E. coli cells separately and the protein products are isolated from the cells. The gene sequence of the Azospirillum brasilense phenylpyruvate decarboxylase (GenBank: Accession no. L26240) is downloaded from the NCBI database. Codons of 13 additional amino acids that include six (6) histidines (his) are added upstream of the Met-1 codon of the AbPPDC gene sequence. Such a modification allows expression of a Histidine-tagged AbPPDC having 13 additional amino acids on the N-terminus. The additional amino acids are attached as an aid for purifying the protein in a single step using Ni-NTA chromatography. The entire AbPPDC sequence with 13 additional amino acids (SEQ ID 2) is chemically synthesized and then cloned into the pRSFDuet-1 vector (EMD Biosciences) downstream of the T7 polymerase promoter by Synthetic Genomics, Inc. (San Diego, Calif.). The final vector is sequenced by Synthetic Genomics, Inc. before shipping.
(§3) Genes of the AbPPDC variants listed in Table 1 are either chemically synthesized or generated using New England Biolab's Q5 Site-directed Mutagenesis Kit (cat. no. E0554S) and cloned into the pRSFDuet-1 vector. The pRSFDuet-1 vector containing AbPPDC or the AbPPDC variant gene is transformed into E. coli, AbPPDC or its variant, then expressed and eventually purified, as described below.
(§4) A high-throughput AbPPDC coupled enzyme assay is developed for evaluating the substrate specificity of AbPPDC variants. The assay involves reducing the aldehyde produced from AbPPDC mediated 2-ketoacid decarboxylation, using an alcohol dehydrogenase (ADH6, GenBank: Accession No. NP 014051.3). The initial velocities of the AbPPDC catalyzed reactions are determined from the rates of oxidation of reduced nicotinamide adenine dinucleotide phosphate (NADPH) occurring during the ADH6 catalyzed reduction of aldehyde.
(§5) The HTP screening assay involves incubating 2 mM 2-KH or 2 mM 2-KN with 0.5 mM thiamine diphosphate, 0.35 mM NADPH, 4.7 micrograms (μg) of yeast ADH6 (GenBank: Accession No. NP 014051.3) and 0.3 milligrams per milliliter (mg/mL) bovine serum albumin (BSA) in AbPPDC assay buffer (50 mM 3-(N-morpholino)propanesulfonic acid, pH 6.8, containing 2.5 mM magnesium chloride (MgCl2)) at 30° C. The reaction is started by addition at 30° C. of working enzyme stock containing from 0.5 μg to 3.5 μg of AbPPDC variant diluted in AbPPDC assay buffer containing 1 mg/mL BSA. The plate containing the 200 μL of reaction mixture is centrifuged at 2500×g for 15 sec and the absorbance change of the reaction mixture followed spectrophotometrically at 340 nm on a BioTek™ plate reader, pre-equilibrated at 30° C. Initial velocity of the enzyme reaction is calculated using the rate of NADPH consumption at 340 nm and the extinction coefficient of NADPH (6.22 mM^−1 cm^−1). The activity of all the variants is normalized with the amount of enzyme present in the reaction mixture and expressed as nanomoles per minute per milligram (nmol·min^−1·mg^−1). […]

[2] = substrate: CCCCCCCC(=O)C(=O)O; assay: as above; details: other: pH 6.8, 30° C, 2-ketoacid 0 to 4 mM, Hill equation, mean ± standard error
Experimental: as §1, §2, §3, §4, §5

[3] = substrate: CCCCCCC(=O)C(=O)O; assay: HTP AbPPDC coupled enzyme assay (ADH6/NADPH), 2-ketoacid decarboxylation kinetics, Q536A; details: other: pH 6.8, 30° C, 2-ketoacid 0 to 4 mM, Hill equation, mean ± standard error
Experimental: as §1, §2, §3, §4, §5

[4] = substrate: CCCCCCCC(=O)C(=O)O; assay: as above; details: other: pH 6.8, 30° C, 2-ketoacid 0 to 4 mM, Hill equation, mean ± standard error
Experimental: as §1, §2, §3, §4, §5

[5] = substrate: CCCCCCC(=O)C(=O)O; assay: HTP AbPPDC coupled enzyme assay (ADH6/NADPH), 2-ketoacid decarboxylation kinetics, Q536G; details: other: pH 6.8, 30° C, 2-ketoacid 0 to 4 mM, Hill equation, mean ± standard error
Experimental: as §1, §2, §3, §4, §5

[6] = substrate: CCCCCCCC(=O)C(=O)O; assay: as above; details: other: pH 6.8, 30° C, 2-ketoacid 0 to 4 mM, Hill equation, mean ± standard error
Experimental: as §1, §2, §3, §4, §5

[7] = substrate: CCCCCCC(=O)C(=O)O; assay: HTP AbPPDC coupled enzyme assay (ADH6/NADPH), 2-ketoacid decarboxylation kinetics, F532L; details: other: pH 6.8, 30° C, 2-ketoacid 0 to 4 mM, Hill equation, mean ± standard error
Experimental: as §1, §2, §3, §4, §5

[8] = substrate: CCCCCCCC(=O)C(=O)O; assay: as above; details: other: pH 6.8, 30° C, 2-ketoacid 0 to 4 mM, Hill equation, mean ± standard error
Experimental: as §1, §2, §3, §4, §5

[9] = substrate: CCCCCCC(=O)C(=O)O; assay: HTP AbPPDC coupled enzyme assay (ADH6/NADPH), 2-ketoacid decarboxylation kinetics, Q536L; details: other: pH 6.8, 30° C, 2-ketoacid 0 to 4 mM, Michaelis-Menten equation, mean ± standard error
Experimental: as §1, §2, §3, §4, §5

[10] = substrate: CCCCCCCC(=O)C(=O)O; assay: as above; details: other: pH 6.8, 30° C, 2-ketoacid 0 to 4 mM, Michaelis-Menten equation, mean ± standard error
Experimental: as §1, §2, §3, §4, §5

B1: Azospirillum brasilense phenylpyruvate decarboxylase (AbPPDC) variant F532V, SEQ ID 28 (Azospirillum brasilense; F532V) (protein)
chain: MKLAEALLRALKDRGAQAMFGIPGDFALPFFKVAEETQILPLHTLSHEPAVGFAADAAARYSSTLGVAAVTYGAGAFNMVNAVAGAYAEKSPVVVISGAPGTTEGNAGLLLHHQGRTLDTQFQVFKEITVAQARLDDPAKAPAEIARVLGAARALSRPVYLEIPRNMVNAEVEPVGDDPAWPVDRDALAACADEVLAAMRSATSPVLMVCVEVRRYGLEAKVAELAQRLGVPVVTTFMGRGLLADAPTPPLGTYIGVAGDAEITRLVEESDGLFLLGAILSDTNFAVSQRKIDLRKTIHAFDRAVTLGYHTYADIPLAGLVDALLEGLPPSDRTTRGKEPHAYPTGLQADGEPIAPMDIARAVNDRVRAGQEPLLIAADMGDCLFTAMDMIDAGLMAPGYYAGMGFGVPAGIGAQCVSGGKRILTVVGDGAFQMTGWELGNCRRLGIDPIVILFNNASWEMLRTFQPESAFNDLDDWRFADMAAGMGGDGVRVRTRAELKAALDKAFATRGRFQLIEAMIPRGVLSDTLARVVQGQKRLHAAPRE
notes: made in house; host or cells: E. coli BL21(DE3)
K0.5 [1]: 2.0 ± 0.1 mM | kcat [1]: 0.163 ± 0.0033 s⁻¹ | kcat/Km [1]: 80 ± 3.3 M⁻¹ s⁻¹ | K0.5 [2]: 0.89 ± 0.15 mM | kcat [2]: 0.383 ± 0.033 s⁻¹ | kcat/Km [2]: 450 ± 83 M⁻¹ s⁻¹

B2: Azospirillum brasilense phenylpyruvate decarboxylase (AbPPDC) variant Q536A, SEQ ID 34 (Azospirillum brasilense; Q536A) (protein)
chain: MKLAEALLRALKDRGAQAMFGIPGDFALPFFKVAEETQILPLHTLSHEPAVGFAADAAARYSSTLGVAAVTYGAGAFNMVNAVAGAYAEKSPVVVISGAPGTTEGNAGLLLHHQGRTLDTQFQVFKEITVAQARLDDPAKAPAEIARVLGAARALSRPVYLEIPRNMVNAEVEPVGDDPAWPVDRDALAACADEVLAAMRSATSPVLMVCVEVRRYGLEAKVAELAQRLGVPVVTTFMGRGLLADAPTPPLGTYIGVAGDAEITRLVEESDGLFLLGAILSDTNFAVSQRKIDLRKTIHAFDRAVTLGYHTYADIPLAGLVDALLEGLPPSDRTTRGKEPHAYPTGLQADGEPIAPMDIARAVNDRVRAGQEPLLIAADMGDCLFTAMDMIDAGLMAPGYYAGMGFGVPAGIGAQCVSGGKRILTVVGDGAFQMTGWELGNCRRLGIDPIVILFNNASWEMLRTFQPESAFNDLDDWRFADMAAGMGGDGVRVRTRAELKAALDKAFATRGRFQLIEAMIPRGVLSDTLARFVQGAKRLHAAPRE
notes: as for B1
K0.5 [3]: 0.72 ± 0.02 mM | kcat [3]: 0.333 ± 0.0033 s⁻¹ | kcat/Km [3]: 450 ± 17 M⁻¹ s⁻¹ | K0.5 [4]: 0.52 ± 0.03 mM | kcat [4]: 0.5 ± 0.017 s⁻¹ | kcat/Km [4]: 967 ± 67 M⁻¹ s⁻¹

B3: Azospirillum brasilense phenylpyruvate decarboxylase (AbPPDC) variant Q536G, SEQ ID 32 (Azospirillum brasilense; Q536G) (protein)
chain: MKLAEALLRALKDRGAQAMFGIPGDFALPFFKVAEETQILPLHTLSHEPAVGFAADAAARYSSTLGVAAVTYGAGAFNMVNAVAGAYAEKSPVVVISGAPGTTEGNAGLLLHHQGRTLDTQFQVFKEITVAQARLDDPAKAPAEIARVLGAARALSRPVYLEIPRNMVNAEVEPVGDDPAWPVDRDALAACADEVLAAMRSATSPVLMVCVEVRRYGLEAKVAELAQRLGVPVVTTFMGRGLLADAPTPPLGTYIGVAGDAEITRLVEESDGLFLLGAILSDTNFAVSQRKIDLRKTIHAFDRAVTLGYHTYADIPLAGLVDALLEGLPPSDRTTRGKEPHAYPTGLQADGEPIAPMDIARAVNDRVRAGQEPLLIAADMGDCLFTAMDMIDAGLMAPGYYAGMGFGVPAGIGAQCVSGGKRILTVVGDGAFQMTGWELGNCRRLGIDPIVILFNNASWEMLRTFQPESAFNDLDDWRFADMAAGMGGDGVRVRTRAELKAALDKAFATRGRFQLIEAMIPRGVLSDTLARFVQGGKRLHAAPRE
notes: as for B1
K0.5 [5]: 1.9 ± 0.2 mM | kcat [5]: 0.183 ± 0.013 s⁻¹ | kcat/Km [5]: 96.7 ± 10 M⁻¹ s⁻¹ | K0.5 [6]: 0.76 ± 0.02 mM | kcat [6]: 0.35 ± 0 s⁻¹ | kcat/Km [6]: 467 ± 17 M⁻¹ s⁻¹

B4: Azospirillum brasilense phenylpyruvate decarboxylase (AbPPDC) variant F532L, SEQ ID 30 (Azospirillum brasilense; F532L) (protein)
chain: MKLAEALLRALKDRGAQAMFGIPGDFALPFFKVAEETQILPLHTLSHEPAVGFAADAAARYSSTLGVAAVTYGAGAFNMVNAVAGAYAEKSPVVVISGAPGTTEGNAGLLLHHQGRTLDTQFQVFKEITVAQARLDDPAKAPAEIARVLGAARALSRPVYLEIPRNMVNAEVEPVGDDPAWPVDRDALAACADEVLAAMRSATSPVLMVCVEVRRYGLEAKVAELAQRLGVPVVTTFMGRGLLADAPTPPLGTYIGVAGDAEITRLVEESDGLFLLGAILSDTNFAVSQRKIDLRKTIHAFDRAVTLGYHTYADIPLAGLVDALLEGLPPSDRTTRGKEPHAYPTGLQADGEPIAPMDIARAVNDRVRAGQEPLLIAADMGDCLFTAMDMIDAGLMAPGYYAGMGFGVPAGIGAQCVSGGKRILTVVGDGAFQMTGWELGNCRRLGIDPIVILFNNASWEMLRTFQPESAFNDLDDWRFADMAAGMGGDGVRVRTRAELKAALDKAFATRGRFQLIEAMIPRGVLSDTLARLVQGQKRLHAAPRE
notes: as for B1
K0.5 [7]: 1.6 ± 0.1 mM | kcat [7]: 0.217 ± 0.005 s⁻¹ | kcat/Km [7]: 137 ± 5 M⁻¹ s⁻¹ | K0.5 [8]: 0.94 ± 0.27 mM | kcat [8]: 0.5 ± 0.083 s⁻¹ | kcat/Km [8]: 583 ± 200 M⁻¹ s⁻¹

B5: Azospirillum brasilense phenylpyruvate decarboxylase (AbPPDC) variant Q536L, SEQ ID 36 (Azospirillum brasilense; Q536L) (protein)
chain: MKLAEALLRALKDRGAQAMFGIPGDFALPFFKVAEETQILPLHTLSHEPAVGFAADAAARYSSTLGVAAVTYGAGAFNMVNAVAGAYAEKSPVVVISGAPGTTEGNAGLLLHHQGRTLDTQFQVFKEITVAQARLDDPAKAPAEIARVLGAARALSRPVYLEIPRNMVNAEVEPVGDDPAWPVDRDALAACADEVLAAMRSATSPVLMVCVEVRRYGLEAKVAELAQRLGVPVVTTFMGRGLLADAPTPPLGTYIGVAGDAEITRLVEESDGLFLLGAILSDTNFAVSQRKIDLRKTIHAFDRAVTLGYHTYADIPLAGLVDALLEGLPPSDRTTRGKEPHAYPTGLQADGEPIAPMDIARAVNDRVRAGQEPLLIAADMGDCLFTAMDMIDAGLMAPGYYAGMGFGVPAGIGAQCVSGGKRILTVVGDGAFQMTGWELGNCRRLGIDPIVILFNNASWEMLRTFQPESAFNDLDDWRFADMAAGMGGDGVRVRTRAELKAALDKAFATRGRFQLIEAMIPRGVLSDTLARFVQGLKRLHAAPRE
notes: as for B1
K0.5 [9]: 1.34 ± 0.23 mM | kcat [9]: 0.45 ± 0.0283 s⁻¹ | kcat/Km [9]: 350 ± 67 M⁻¹ s⁻¹ | K0.5 [10]: 1.51 ± 0.26 mM | kcat [10]: 1.38 ± 0.1 s⁻¹ | kcat/Km [10]: 933 ± 183 M⁻¹ s⁻¹
